Where “and” joins values, the source holds several entries; their conditions need not be identical. Identical values can stand only once.

This is an account of results in patent publication US20220112296A1 (Chugai, published 2022).

One assay addresses T1, Human CD3eg linker (human).
T1 construct: CD3 epsilon and gamma subunits joined by a 29-mer linker, C-terminal Flag-tag (in the entry); also called recombinant human CD3
T1 chain: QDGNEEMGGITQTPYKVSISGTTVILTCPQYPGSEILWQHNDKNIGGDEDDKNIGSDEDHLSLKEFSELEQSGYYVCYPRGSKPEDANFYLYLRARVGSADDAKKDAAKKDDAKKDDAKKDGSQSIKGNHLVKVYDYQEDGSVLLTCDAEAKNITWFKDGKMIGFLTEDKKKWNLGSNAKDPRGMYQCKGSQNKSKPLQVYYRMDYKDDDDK
The assay is described as follows: SPR Biacore T200, 25 C, Ab captured. (In SPR one partner is held on a chip, and binding of the other changes the refractive index at the surface.)

The target of a further assay is T2, Human CD137 ECD (human).
T2 construct: C-terminal His-tag and biotin acceptor peptide are in the entry; also called human CD137 extracellular domain; recombinant human CD137
The assay is described as follows: SPR Biacore T200, 37 C, Ab captured.

For assay [1], the target named is T3, biotinylated CD3 epsilon epitope peptide.
T3 construct: immobilised on CM5 chip via streptavidin
The assay is described as follows: SPR Biacore, method of Ref. Ex. 12.6.

A further assay has as its target T4, cyno CD137-Fc (cynomolgus monkey; human, biotin-labeled).
T4 construct: whole entry named; also called biotin-labeled cynomolgus monkey CD137 fused to human IgG1 Fc fragment; not shown: human IgG1 Fc fragment
T4 chain: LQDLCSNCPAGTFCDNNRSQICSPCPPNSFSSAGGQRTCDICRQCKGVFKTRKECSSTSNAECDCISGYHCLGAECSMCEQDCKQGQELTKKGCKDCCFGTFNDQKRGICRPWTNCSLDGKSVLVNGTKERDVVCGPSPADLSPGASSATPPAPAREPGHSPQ
The assay is described as follows: bead ELISA.

T2 sequence (chain, as listed by the source limits assumed): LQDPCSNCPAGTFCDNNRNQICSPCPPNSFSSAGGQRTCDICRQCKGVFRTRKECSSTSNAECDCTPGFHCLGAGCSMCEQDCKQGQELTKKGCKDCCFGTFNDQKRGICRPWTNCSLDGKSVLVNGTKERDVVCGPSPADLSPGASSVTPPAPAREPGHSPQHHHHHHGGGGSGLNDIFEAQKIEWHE
Procedure for Human CD137 ECD: (§1) Anti-human Fc (GE Healthcare) was immobilized onto all flow cells of a CM4 sensor chip using amine coupling kit (GE Healthcare). […] All antibodies and analytes were prepared in ACES pH 7.4 containing 20 mM ACES, 150 mM NaCl, 0.05% Tween 20, 0.005% NaN3. Sensor surface was regenerated each cycle with 3M MgCl2.
Procedure for Human CD3eg linker: as §1

B1: H1643L0581 (antibody, V domains shown)
VH: QVQLVESGGGLVQPGRSLRLSCAASGFKFSNVWFHWVRQAPGKGLEWVAQIKDYYNAYAAYYAPSVKGRFTISRDDSKNSIYLQMNSLKTEDTAVYYCHYVHYASASTLLPAEGVDAWGQGTTVTVSS
VL: DIVMTQSPLSLPVTPGEPASISCQPSQEVVHMNRNTYLHWYQQKPGQAPRLLIYKVSNRFPGVPDRFSGSGSGTDFTLKISRVEAEDVGVYYCAQGTSHPFTFGQGTKLEIK
notes: also called H1643L581; Dual
For the molecule B1, the dissociation constant (Kd) with Human CD3eg linker amounted to 288 nM; with Human CD137 ECD it was 47.9 nM.

B2: CE115HA340 (antibody, human IgG1, L234A L235A, N297A, V domains shown)
VH: QVQLVESGGGLVQPGRSLRLSCAASGFTFSNAWMHWVRQAPGKGLEWVAQIKDKSNNYATYYAESVKGRFTISRDDSKNSIYLQMNSLKTEDTAVYYCRYVHYAAYYGVDAWGQGTTVTVSS
VL: DIVMTQSPLSLPVTPGEPASISCRSSQSLVHSNRNTYLHWYQQKPGQAPRLLIYKVSNRFSGVPDRFSGSGSGTDFTLKISRVEAEDVGVYYCGQGTQVPYTFGQGTKLEIK
With B2, the dissociation constant Kd in assay [1] was 20 nM and 27 nM.

B3: DADU01_3#001 (antibody, V domains shown)
VH: QVQLVESGGGLVQPGRSLRLSCAASGFTFSIAWMHWVRQAPGKGLEWVAQIKDRVNAYEAYYAPSVKGRFTISRDDSKNSIYLQMNSLKTEDTAVYYCRYVHYASYYDLLGYGGVDAWGQGTTVTVSS
VL: DIVMTQSPLSLPVTPGEPASISCRSSQSLVHSNRNTYLHWYQQKPGQAPRLLIYKVSNRFSGVPDRFSGSGSGTDFTLKISRVEAEDVGVYYCGQGTQVPYTFGQGTKLEIK
notes: also called dBBDu_126; dBBDu126
As for B3, the binding result with cyno CD137-Fc is “no binding”.

B4: H1673L0943 (antibody, V domains shown)
VH: QVQLVESGGGLVQPGRSLRLSCAASGFVFSNVWFHWVRQAPGKGLEWVAQIKDKWNAYADYYAPSVKERFTISRDDSKNSIYLQMNSLKTEDTAVYYCHYIHYASASTLLPAEGIDAWGQGTTVTVSS
VL: DIVMTQSPLSLPVTPGEPASISCQPSEEVVHMNRNTYLHWYQQKPGQAPRLLIYKVSNLFPGVPDRFSGSGSGTDFTLKISRVEAEDVGVYYCAQGTHHPFTFGQGTKLEIK
As for B4, the Kd with Human CD3eg linker worked out at 24.6 nM; with Human CD137 ECD, 56.5 nM.

For orientation: Kd means the constant that tells how readily two partners part at equilibrium. Higher therefore signals lower affinity.
